The target in this assay is Spt6 (UniProt Q9W420). The experiment in a line: anti-Spt6 co-IP, FLAG blot, 150 mM wash. The following applies: reference: wild type dCENP-A-FLAG; sites S20,S75,S77.

The results in this text go back to article PMC7287101.

Turning to “dCENP-A (CID) (from UniProt Q9V6Q2) S20/S75/S77A”, the “binding against the reference” value was “stronger”.
